Experimental data: patent US10676765B2, “Methods for producing 3-hydroxy-3-methylbutyric acid” (Global Bioenergies, priority 2015, dated 2020)

Tests used:
Format in all cases: biochemical
[1] = Kinetic studies of the hydration reaction of 3-methylcrotonyl-CoA; conditions: 0-4 mM 3-methylcrotonyl-CoA, 0.01 mg/ml enzyme, 30° C., pH 7.0
Procedure: (§1) The enzymatic assays were conducted in total reaction volume of 0.2 ml
(§2) The standard reaction mixture contained:
0-4 mM 3-methylcrotonyl-CoA
0.01 mg/ml 3-hydroxypropionyl-CoA dehydratase from Metallosphaera sedula.
Assays were incubated for 0, 2, 4, 8, 16 min with shaking at 30° C. and the reactions were stopped by the addition of 100 μl of acetonitrile. The amount of 3-hydroxyisovaleryl-CoA was quantified according to HPLC-based procedure described in Example 3.
The graph depicting 3-hydroxyisovaleryl-CoA formation as a function of time at different substrate concentrations is shown in the FIG. 15.

[2] = Formation of 3-hydroxyisovaleryl phosphate from 3-hydroxyisovaleryl-CoA and phosphate (MS); conditions: 10 mM 3-hydroxyisovaleryl-CoA, mass spectrometry
Procedure: The studied enzymatic reaction was carried out under the following conditions:
10 mM 3-hydroxyisovaleryl-CoA (3-hydroxy-3-methylbutyryl-CoA)
The purified phosphate butyryltransferase from B. subtilis was resuspended in 5 mM potassium phosphate pH 7.5.
A control assay without enzyme was performed in parallel.
The enzymatic assay was initiated by the addition of 20 μl of enzyme preparation into 20 μl of reaction mixture. The formation of 3-hydroxyisovaleryl phosphate (3-hydroxy-3-methylbutyryl phosphate) was analyzed by Mass Spectrometry (MS). 5 μl of the assay was introduced into the mass spectrometer via a loop injection.
Flow injection analyses were performed using a Dionex Ultimate chromatographic system (Thermo Fisher Scientific) at a flow rate of 100 μL/min with a mobile phase composed of H2O containing 10 mM ammonium formate pH 9.45 and acetonitrile 75:25 v/v. Detection was performed with a Q-exactive spectrometer (Thermo Fisher Scientific) fitted with an electrospray ionization source (negative ionization mode at a resolution of 70000 m/Δm, FWHM at m/z 200). Non-resonant induced dissociation experiments—Higher-energy C-trap dissociation (HCD)—were acquired at normalized collision energy of 10%. Raw data were manually inspected using the Qualbrowser module of Xcalibur version 3.0 (Thermo Fisher Scientific). […]

[3] = Conversion of 3-hydroxyisovaleryl-CoA and ADP into 3-hydroxyisovaleric acid and ATP, phosphate butyryltransferase from Bacillus subtilis with butyrate kinases; conditions: 4 mM 3-hydroxyisovaleryl-CoA, 4 mM ADP, 0.2 mg/ml each enzyme, 20 min, 30° C.
Procedure: (§3) The enzymatic assays were conducted in a total reaction volume of 0.2 ml.
as §2
(§4) 50 mM potassium phosphate buffer pH 7.5
4 mM 3-hydroxyisovaleryl-CoA
(§5) 0.2 mg/ml of purified phosphate butyryltransferase from Bacillus subtilis
(§6) 0.2 mg/ml of purified butyrate kinase from Lactobacillus casei or Geobacillus sp.
A series of controls were performed in parallel (Assays C-H; Table 4).
The assays were then incubated for 20 min with shaking at 30° C.
(§7) After an incubation period, the reactions were stopped by heating the reaction medium 4 min at 90° C. The samples were centrifuged, filtered through a 0.22 μm filter and the clarified supernatants were transferred into a clean vial for further analysis. The consumption of ADP and 3-hydroxyisovaleryl-CoA, and the formation of ATP, 3-hydroxyisovaleric acid and free coenzyme A (CoA-SH) were followed by using HPLC-based methods.
HPLC analysis was performed using 1260 Infinity LC System (Agilent), equipped with column heating module and RI detector. 2 μl of samples were separated on Polaris C18-A column (150×4.6 mm, 5 μm particle size, column temp. 30° C.) with a mobile phase flow rate of 1.5 ml/min. The separation was performed using 8.4 mM sulfuric acid in H2O/MeOH mixed solution (99/1) (V/V). In these conditions, the retention time of ADP, ATP and 3-hydroxyisovaleric acid were 2.09 min, 2.26 min and 5.01 min, respectively. […]

[4] = Conversion of 3-methylcrotonyl-CoA and ADP into 3-methylcrotonic acid and ATP, phosphate butyryltransferase from Bacillus subtilis with butyrate kinases; conditions: 4 mM 3-methylcrotonyl-CoA, 4 mM ADP, 0.2 mg/ml each enzyme, 20 min, 30° C.
Procedure: as §3, §2, §4
4 mM 3-methylcrotonyl-CoA
as §5, §6
Assays were then incubated for 20 min with shaking at 30° C.
as §7, with “3-methylcrotonyl-CoA,” for “3-hydroxyisovaleryl-CoA,”, “3-methylcrotonic” for “3-hydroxyisovaleric”
HPLC analysis was performed using the 1260 Infinity LC System (Agilent) equipped with a column heating module and an RI detector. 2 μl of samples were separated on a Polaris C18-A column (150×4.6 mm, 5 μm particle size, column temp. 30° C.) with a mobile phase flow rate of 1.5 ml/min. The consumption of ADP and the formation of ATP were followed by HPLC analysis according to the methods described in Example 10.
HPLC analysis was performed using the 1260 Infinity LC System (Agilent) equipped with a column heating module and a UV detector (260 nm). […]

[5] = Enzyme-catalyzed hydrolysis of 3-hydroxyisovaleryl-CoA into 3-hydroxyisovaleric acid; conditions: 10 mM 3-hydroxyisovaleryl-CoA, 1 mg/ml thioesterase, 30 min, 30° C.
Procedure: The gene coding for acyl-CoA thioesterase II from Pseudomonas putida was synthesized and the corresponding enzymes were further produced according to the procedure described in Example 1.
Provided vectors contained a stretch of 6 histidine codons after the methionine initiation codon. The corresponding enzymes were further produced according to the procedure described in Example 1.
as §1, §2
10 mM 3-hydroxyisovaleryl-CoA
1 mg/ml of purified thioesterase
The assays were incubated for 30 min with shaking at 30° C. and the reactions were stopped by the addition of 0.1 ml of acetonitrile. The amount of 3-hydroxyisovaleryl-CoA was quantified according to HPLC-based procedure described in Example 3.
In these conditions, the 3-hydroxyisovaleryl-CoA retention time was 4.40 min and coenzyme A (CoA) retention time was 3.96 min.
Additionally, 3-hydroxyisovaleric acid production was analyzed according to the procedure described en Example 6.

[6] = Enzyme-catalyzed hydrolysis of 3-methylcrotonyl-CoA into 3-methylcrotonic acid and free coenzyme A; conditions: 10 mM 3-methylcrotonyl-CoA, 1 mg/ml thioesterase, 30 min, 30° C.
Source text: The gene coding for acyl-CoA thioesterase II from Pseudomonas putida was synthesized according to the procedure as described in Example 1.
The vector pCA24N which contained the gene encoding acyl-CoA thioesterase 2 (TesB) from Escherichia coli was purchased from NAIST (Nara Institute of Science and Technology, Japan, ASKA collection). This vector provided contained a stretch of 6 histidine codons after the methionine initiation codon.
The corresponding enzymes were produced according to the procedure described in Example 1.
as §3, §2
10 mM 3-methylcrotonyl-CoA (Sigma-Aldrich)
1 mg/ml of purified recombinant thioesterase.
Control assays were performed in which either no enzyme was added or no substrate was added.
The assays were incubated for 30 min with shaking at 30° C., the reactions were stopped by the addition of 0.1 ml of acetonitrile and the samples were then analyzed by HPLC-based procedure.
HPLC analysis was performed using an 1260 Infinity LC System (Agilent), equipped with a column heating module and a UV detector (210 nm). […] The separation was performed using mixed A (H2O containing 8.4 mM sulfuric acid) and B (acetonitrile) solutions in a linear gradient (0% B at initial time 0 min→70% B at 8 min). […]

B1: 3-Hydroxypropionyl-CoA dehydratase from Metallosphaera sedula: recombinant His-tagged 3-hydroxypropionyl-CoA dehydratase (EC 4.2.1.116) from Metallosphaera sedula, Uniprot A4YI89 (protein, listed as Metallosphaera sedula)
chain: MEFETIETKKEGNLFWITLNRPDKLNALNAKLLEELDRAVSQAESDPEIRVIIITGKGKAFCAGADITQFNQLTPAEAWKFSKKGREIMDKIEALSKPTIAMINGYALGGGLELALACDIRIAAEEAQLGLPEINLGIYPGYGGTQRLTRVIGKGRALEMMMTGDRIPGKDAEKYGLVNRVVPLANLEQETRKLAEKIAKKSPISLALIKEVVNRGLDSPLLSGLALESVGWGVVFSTEDKKEGVSAFLEKREPTFKGK
modifications: His tag; strain ATCC 51363 /DSM 5348
notes: recombinant His-tagged 3-hydroxypropionyl-CoA dehydratase (EC 4.2.1.116) from Metallosphaera sedula, Uniprot A4YI89
- Km [1]: 300 µM
- kcat for 3-methylcrotonyl-CoA [1]: 10 s⁻¹

B2: phosphate butyryltransferase from Bacillus subtilis: phosphate butyryltransferase (EC 2.3.1.19) from Bacillus subtilis (strain 168), Uniprot P54530 (protein, listed as Bacillus subtilis)
chain: MKLKDLIGKASIHKNKTIAVAHAEDEEVIRAVKLAAEHLSARFLLTGDSKKLNELTSSMQGHQVEIVHANTPEESAKLAVRAVHHKTADVLMKGNVPTSVLLKAVLNRQEGLRSASVLSHVAVFDIPDFDRLMFVTDSAMNIAPSLEELRQILQNAVHVAHAVGNNMPKAAALAAVETVNPKMEATVNAAALAQMYKRGQIKGCIVDGPLALDNAVSQIAAAQKKISGDVAGNADILLVPTIEAGNILYKSLIYFAKASVAAVITGAKAPIALTSRADSAENKLYSIALAICASEEYTH
modifications: strain 168
notes: phosphate butyryltransferase (EC 2.3.1.19) from Bacillus subtilis (strain 168), Uniprot P54530
- generation of 3-hydroxyisovaleryl phosphate [2]: generation of 3-hydroxyisovaleryl phosphate in the enzyme catalyzed assay was proved by MS technique
- production of 3-hydroxyisovaleric acid and ATP [3]: significant production of 3-hydroxyisovaleric acid, without simultaneous generation of ATP
- production of 3-methylcrotonic acid and ATP [4]: significant production of 3-methylcrotonic acid without a simultaneous generation of ATP

B3: tesB Escherichia coli: acyl-CoA thioesterase 2 from E. coli, Uniprot P0AGG2 (protein, listed as Escherichia coli)
chain: MSQALKNLLTLLNLEKIEEGLFRGQSEDLGLRQVFGGQVVGQALYAAKETVPEERLVHSFHSYFLRPGDSKKPIIYDVETLRDGNSFSARRVAAIQNGKPIFYMTASFQAPEAGFEHQKTMPSAPAPDGLPSETQIAQSLAHLLPPVLKDKFICDRPLEVRPVEFHNPLKGHVAEPHRQVWIRANGSVPDDLRVHQYLLGYASDLNFLPVALQPHGIGFLEPGIQIATIDHSMWFHRPFNLNEWLLYSVESTSASSARGFVRGEFYTQDGVLVASTVQEGVMRNHN
modifications: strain K12
notes: acyl-CoA thioesterase 2 from E. coli, Uniprot P0AGG2
- Conversion, % [5]: 52%
- 3-methylcrotonic acid produced [6]: 0.6 mM

B4: tesB Pseudomonas putida: acyl-CoA thioesterase II from Pseudomonas putida, Uniprot Q88DR1 (protein, listed as Pseudomonas putida)
chain: MSHVLDDLVDLLSLESIEENLFRGRSQDLGFRQLYGGQVLGQSLSAASQTVEDARHVHSLHGYFLRPGDASLPVVYSVDRVRDGGSFSTRRVTAIQKGQTIFTCSASFQYDEEGFEHQAQMPDVVGPENLPTEVELAHAMADQLPERIRDKVLCAKPIEIRPVTERDPFNPKPGDPVKYAWFRADGNLPDVPALHKYMLAYASDFGLLTTALLPHGKSVWQRDMQIASLDHSLWFHGNLRADQWLLYATDSPWAGNSRGFCRGSIFNQAGQLVASSSQEGLIRHRKDWA
- Conversion, % [5]: 58%
- 3-methylcrotonic acid produced [6]: 3.1 mM
